Measurements as given in article PMC4564177.

Columns and labels:
Assay in all cases: fluorescence polarisation; competition set-up: constant concentration of isolated PSD95 PDZ domain and Cy5-labeled reference ligand titrated with the unlabeled CRHR1 peptide
[1] = biological target: isolated PDZ1 domain of PSD95 (UniProt P78352)
[2] = biological target: isolated PDZ2 domain of PSD95 (UniProt P78352)
[3] = biological target: isolated PDZ3 domain of PSD95 (UniProt P78352)
[4] = biological target: isolated PDZ1-2 tandem of PSD95 (UniProt P78352)
isolated PDZ1-2 tandem of PSD95, sequence (P78352 whole entry): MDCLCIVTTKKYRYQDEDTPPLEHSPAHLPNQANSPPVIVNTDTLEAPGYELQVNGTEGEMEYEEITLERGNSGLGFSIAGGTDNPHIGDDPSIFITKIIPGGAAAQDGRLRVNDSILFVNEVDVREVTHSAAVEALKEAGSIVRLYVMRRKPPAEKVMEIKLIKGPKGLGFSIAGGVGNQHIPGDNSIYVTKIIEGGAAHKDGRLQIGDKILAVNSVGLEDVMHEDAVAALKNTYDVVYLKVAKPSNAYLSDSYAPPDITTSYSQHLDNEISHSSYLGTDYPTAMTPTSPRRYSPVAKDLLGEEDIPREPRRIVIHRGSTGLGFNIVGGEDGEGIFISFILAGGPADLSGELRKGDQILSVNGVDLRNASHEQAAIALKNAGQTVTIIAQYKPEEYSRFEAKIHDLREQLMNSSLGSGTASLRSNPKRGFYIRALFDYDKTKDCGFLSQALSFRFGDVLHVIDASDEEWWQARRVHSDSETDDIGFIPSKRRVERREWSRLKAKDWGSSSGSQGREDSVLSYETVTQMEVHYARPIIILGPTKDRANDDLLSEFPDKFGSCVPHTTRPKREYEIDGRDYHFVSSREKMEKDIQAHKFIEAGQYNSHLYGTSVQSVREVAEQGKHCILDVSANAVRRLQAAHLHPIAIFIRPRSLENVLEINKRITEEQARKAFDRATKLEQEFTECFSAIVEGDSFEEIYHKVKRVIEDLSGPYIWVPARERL

C-terminal 10 amino acids of CRHR1 (unlabeled CRHR1 peptide), sequence (P35347 whole entry, looked up, tested part not stated): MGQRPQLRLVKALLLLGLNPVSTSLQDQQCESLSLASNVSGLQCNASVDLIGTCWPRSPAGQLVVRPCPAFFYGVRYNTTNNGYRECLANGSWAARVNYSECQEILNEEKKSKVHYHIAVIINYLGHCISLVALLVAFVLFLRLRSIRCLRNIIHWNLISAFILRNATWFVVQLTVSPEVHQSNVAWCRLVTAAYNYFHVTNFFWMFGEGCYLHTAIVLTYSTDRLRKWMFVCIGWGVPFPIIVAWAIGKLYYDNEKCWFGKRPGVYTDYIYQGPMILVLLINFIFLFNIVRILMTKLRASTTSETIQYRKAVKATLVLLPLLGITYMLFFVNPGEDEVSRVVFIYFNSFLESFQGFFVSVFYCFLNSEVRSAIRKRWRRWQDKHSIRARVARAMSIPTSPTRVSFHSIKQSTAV
isolated PDZ3 domain of PSD95, sequence (P78352 whole entry, the tested form may be a part): as the sequence (P78352 whole entry) above
isolated PDZ2 domain of PSD95, sequence (P78352 whole entry, the tested form may be a part): as the sequence (P78352 whole entry) above
isolated PDZ1 domain of PSD95, sequence (P78352 whole entry, the tested form may be a part): as the sequence (P78352 whole entry) above

C-terminal 10 amino acids of CRHR1 (unlabeled CRHR1 peptide) (from UniProt P35347 406-415)
Ki [1]: 77 µM | Ki [2]: 19 µM | Ki [3]: 48 µM | Ki [4]: 24 µM
